In the array DNA melting data of Ke et al.:

Experiment: melting temperature; melt of duplexes
Details: sodium 0.0675 M; strand 1 µM

| Substance | Tm |
| --- | --- |
| CGACGTGCCGTATGTGCTG+CAGCACATTAAGCACGTCG ((((((((...((((((((+))))))))...)))))))) | 49.1 °C |
| CGACGTGCCGTATGTGCTG+CAGCACATTATGCACGTCG ((((((((...((((((((+))))))))...)))))))) | 48.6 °C |
| CGACGTGCCGTATGTGCTG+CAGCACATTCGGCACGTCG ((((((((((.((((((((+)))))))).)))))))))) | 59.9 °C |
| CGACGTGCCGTATGTGCTG+CAGCACATTGTGCACGTCG ((((((((...((((((((+))))))))...)))))))) | 45.5 °C |
| CGACGTGCCGTATGTGCTG+CAGCACATTTGGCACGTCG (((((((((..((((((((+))))))))..))))))))) | 55.2 °C |
| CGACGTGCCTAATGTGCTG+CAGCACATAACGCACGTCG ((((((((.(.((((((((+)))))))).).)))))))) | 48.2 °C |
| CGACGTGCCTAATGTGCTG+CAGCACATCAGGCACGTCG ((((((((((.((((((((+)))))))).)))))))))) | 56.3 °C |
| CGACGTGCCTAATGTGCTG+CAGCACATCATGCACGTCG ((((((((.(.((((((((+)))))))).).)))))))) | 48.5 °C |
| CGACGTGCCTAATGTGCTG+CAGCACATCGTGCACGTCG ((((((((...((((((((+))))))))...)))))))) | 43.1 °C |
| CGACGTGCCTAATGTGCTG+CAGCACATCTTGCACGTCG ((((((((...((((((((+))))))))...)))))))) | 48 °C |
| CGACGTGCCTAATGTGCTG+CAGCACATGACGCACGTCG ((((((((.(.((((((((+)))))))).).)))))))) | 46.4 °C |
| CGACGTGCCTAATGTGCTG+CAGCACATGAGGCACGTCG ((((((((((.((((((((+)))))))).)))))))))) | 58.5 °C |
| CGACGTGCCTAATGTGCTG+CAGCACATGCGGCACGTCG (((((((((..((((((((+))))))))..))))))))) | 53.3 °C |
| CGACGTGCCTAATGTGCTG+CAGCACATGGCGCACGTCG ((((((((...((((((((+))))))))...)))))))) | 51.1 °C |
| CGACGTGCCTAATGTGCTG+CAGCACATGGGGCACGTCG (((((((((..((((((((+))))))))..))))))))) | 56 °C |
| CGACGTGCCTAATGTGCTG+CAGCACATGGTGCACGTCG ((((((((...((((((((+))))))))...)))))))) | 48.3 °C |
| CGACGTGCCTAATGTGCTG+CAGCACATTAAGCACGTCG ((((((((.((((((((((+)))))))))).)))))))) | 53.4 °C |
| CGACGTGCCTAATGTGCTG+CAGCACATTATGCACGTCG ((((((((.((((((((((+)))))))))).)))))))) | 54 °C |
| CGACGTGCCTAATGTGCTG+CAGCACATTCTGCACGTCG ((((((((..(((((((((+)))))))))..)))))))) | 51 °C |
| CGACGTGCCTAATGTGCTG+CAGCACATTGAGCACGTCG ((((((((..(((((((((+)))))))))..)))))))) | 52.7 °C |
| CGACGTGCCTAATGTGCTG+CAGCACATTGTGCACGTCG ((((((((..(((((((((+)))))))))..)))))))) | 49 °C |
| CGACGTGCCTAATGTGCTG+CAGCACATTTCGCACGTCG ((((((((..(((((((((+)))))))))..)))))))) | 50.5 °C |
| CGACGTGCCTAATGTGCTG+CAGCACATTTGGCACGTCG (((((((((.(((((((((+))))))))).))))))))) | 58.7 °C |
| CGACGTGCCTCATGTGCTG+CAGCACATAAGGCACGTCG ((((((((((.((((((((+)))))))).)))))))))) | 56.2 °C |

| Substance | Tm |
| --- | --- |
| CGACGTGCCTCATGTGCTG+CAGCACATAATGCACGTCG ((((((((.(.((((((((+)))))))).).)))))))) | 48 °C |
| CGACGTGCCTCATGTGCTG+CAGCACATACAGCACGTCG ((((((((...((((((((+))))))))...)))))))) | 48.3 °C |
| CGACGTGCCTCATGTGCTG+CAGCACATACGGCACGTCG (((((((((..((((((((+))))))))..))))))))) | 52.4 °C |
| CGACGTGCCTCATGTGCTG+CAGCACATAGCGCACGTCG ((((((((...((((((((+))))))))...)))))))) | 49.6 °C |
| CGACGTGCCTCATGTGCTG+CAGCACATATTGCACGTCG ((((((((...((((((((+))))))))...)))))))) | 46.7 °C |
| CGACGTGCCTCATGTGCTG+CAGCACATCCAGCACGTCG ((((((((...((((((((+))))))))...)))))))) | 47.4 °C |
| CGACGTGCCTCATGTGCTG+CAGCACATCTAGCACGTCG ((((((((...((((((((+))))))))...)))))))) | 47.8 °C |
| CGACGTGCCTCATGTGCTG+CAGCACATGCAGCACGTCG ((((((((..(((((((((+)))))))))..)))))))) | 52.8 °C |
| CGACGTGCCTCATGTGCTG+CAGCACATGGGGCACGTCG (((((((((.(((((((((+))))))))).))))))))) | 61.2 °C |
| CGACGTGCCTCATGTGCTG+CAGCACATGTGGCACGTCG (((((((((.(((((((((+))))))))).))))))))) | 59.8 °C |
| CGACGTGCCTCATGTGCTG+CAGCACATGTTGCACGTCG ((((((((..(((((((((+)))))))))..)))))))) | 52.3 °C |
| CGACGTGCCTCATGTGCTG+CAGCACATTACGCACGTCG ((((((((.(.((((((((+)))))))).).)))))))) | 46.4 °C |
| CGACGTGCCTCATGTGCTG+CAGCACATTAGGCACGTCG ((((((((((.((((((((+)))))))).)))))))))) | 56.3 °C |
| CGACGTGCCTCATGTGCTG+CAGCACATTCAGCACGTCG ((((((((...((((((((+))))))))...)))))))) | 47.9 °C |
| CGACGTGCCTCATGTGCTG+CAGCACATTCGGCACGTCG (((((((((..((((((((+))))))))..))))))))) | 53 °C |
| CGACGTGCCTCATGTGCTG+CAGCACATTCTGCACGTCG ((((((((...((((((((+))))))))...)))))))) | 47.1 °C |
| CGACGTGCCTCATGTGCTG+CAGCACATTTAGCACGTCG ((((((((...((((((((+))))))))...)))))))) | 47.5 °C |
| CGACGTGCCTCATGTGCTG+CAGCACATTTCGCACGTCG ((((((((...((((((((+))))))))...)))))))) | 46.5 °C |
| CGACGTGCCTGATGTGCTG+CAGCACATAAAGCACGTCG ((((((((.(.((((((((+)))))))).).)))))))) | 51.7 °C |
| CGACGTGCCTGATGTGCTG+CAGCACATACAGCACGTCG ((((((((...((((((((+))))))))...)))))))) | 50.8 °C |
| CGACGTGCCTGATGTGCTG+CAGCACATACCGCACGTCG ((((((((...((((((((+))))))))...)))))))) | 48.1 °C |
| CGACGTGCCTGATGTGCTG+CAGCACATACGGCACGTCG (((((((((..((((((((+))))))))..))))))))) | 54.1 °C |
| CGACGTGCCTGATGTGCTG+CAGCACATAGTGCACGTCG ((((((((...((((((((+))))))))...)))))))) | 46.5 °C |
| CGACGTGCCTGATGTGCTG+CAGCACATATCGCACGTCG ((((((((...((((((((+))))))))...)))))))) | 47.7 °C |

| Substance | Tm |
| --- | --- |
| CGACGTGCCTGATGTGCTG+CAGCACATATGGCACGTCG (((((((((..((((((((+))))))))..))))))))) | 55.8 °C |
| CGACGTGCCTGATGTGCTG+CAGCACATCAGGCACGTCG (((((((((((((((((((+))))))))))))))))))) | 65.9 °C |
| CGACGTGCCTGATGTGCTG+CAGCACATCCCGCACGTCG ((((((((..(((((((((+)))))))))..)))))))) | 53 °C |
| CGACGTGCCTGATGTGCTG+CAGCACATCCTGCACGTCG ((((((((..(((((((((+)))))))))..)))))))) | 53.1 °C |
| CGACGTGCCTGATGTGCTG+CAGCACATCGTGCACGTCG ((((((((..(((((((((+)))))))))..)))))))) | 51.4 °C |
| CGACGTGCCTGATGTGCTG+CAGCACATCTGGCACGTCG (((((((((.(((((((((+))))))))).))))))))) | 61.1 °C |
| CGACGTGCCTGATGTGCTG+CAGCACATGACGCACGTCG ((((((((.(.((((((((+)))))))).).)))))))) | 44.5 °C |
| CGACGTGCCTGATGTGCTG+CAGCACATGAGGCACGTCG ((((((((((.((((((((+)))))))).)))))))))) | 58.5 °C |
| CGACGTGCCTGATGTGCTG+CAGCACATGATGCACGTCG ((((((((.(.((((((((+)))))))).).)))))))) | 49.4 °C |
| CGACGTGCCTGATGTGCTG+CAGCACATGCAGCACGTCG ((((((((...((((((((+))))))))...)))))))) | 50.4 °C |
| CGACGTGCCTGATGTGCTG+CAGCACATGCCGCACGTCG ((((((((...((((((((+))))))))...)))))))) | 47.5 °C |
| CGACGTGCCTGATGTGCTG+CAGCACATGGAGCACGTCG ((((((((...((((((((+))))))))...)))))))) | 51.6 °C |
| CGACGTGCCTGATGTGCTG+CAGCACATTAAGCACGTCG ((((((((.(.((((((((+)))))))).).)))))))) | 50.8 °C |
| CGACGTGCCTGATGTGCTG+CAGCACATTACGCACGTCG ((((((((.(.((((((((+)))))))).).)))))))) | 49 °C |
| CGACGTGCCTGATGTGCTG+CAGCACATTATGCACGTCG ((((((((.(.((((((((+)))))))).).)))))))) | 50.2 °C |
| CGACGTGCCTGATGTGCTG+CAGCACATTCGGCACGTCG (((((((((..((((((((+))))))))..))))))))) | 54.7 °C |
| CGACGTGCCTGATGTGCTG+CAGCACATTGGGCACGTCG (((((((((..((((((((+))))))))..))))))))) | 57.1 °C |
| CGACGTGCCTGATGTGCTG+CAGCACATTTAGCACGTCG ((((((((...((((((((+))))))))...)))))))) | 49.6 °C |
| CGACGTGCCTGATGTGCTG+CAGCACATTTCGCACGTCG ((((((((...((((((((+))))))))...)))))))) | 48.2 °C |
| CGACGTGCCTGATGTGCTG+CAGCACATTTTGCACGTCG ((((((((...((((((((+))))))))...)))))))) | 48.8 °C |
| CGACGTGCCTTATGTGCTG+CAGCACATAACGCACGTCG ((((((((.((((((((((+)))))))))).)))))))) | 52.2 °C |
| CGACGTGCCTTATGTGCTG+CAGCACATAATGCACGTCG ((((((((.((((((((((+)))))))))).)))))))) | 53.7 °C |
| CGACGTGCCTTATGTGCTG+CAGCACATAGCGCACGTCG ((((((((..(((((((((+)))))))))..)))))))) | 50.4 °C |
| CGACGTGCCTTATGTGCTG+CAGCACATATCGCACGTCG ((((((((..(((((((((+)))))))))..)))))))) | 49.9 °C |
